Earlier results as cited in PMC4872106.
pKd: −log10 of the molar value.

Molecular target: M.EcoKI (Escherichia coli) (UniProt P08957)
Conditions: cited from earlier work

Chain of Ocr (P03775 whole entry): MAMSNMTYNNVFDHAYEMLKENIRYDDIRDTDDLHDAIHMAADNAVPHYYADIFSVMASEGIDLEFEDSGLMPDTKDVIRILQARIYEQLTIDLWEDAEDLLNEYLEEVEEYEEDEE
Chain of M.EcoKI (Escherichia coli) (P08957 whole entry, chain 1 of 2): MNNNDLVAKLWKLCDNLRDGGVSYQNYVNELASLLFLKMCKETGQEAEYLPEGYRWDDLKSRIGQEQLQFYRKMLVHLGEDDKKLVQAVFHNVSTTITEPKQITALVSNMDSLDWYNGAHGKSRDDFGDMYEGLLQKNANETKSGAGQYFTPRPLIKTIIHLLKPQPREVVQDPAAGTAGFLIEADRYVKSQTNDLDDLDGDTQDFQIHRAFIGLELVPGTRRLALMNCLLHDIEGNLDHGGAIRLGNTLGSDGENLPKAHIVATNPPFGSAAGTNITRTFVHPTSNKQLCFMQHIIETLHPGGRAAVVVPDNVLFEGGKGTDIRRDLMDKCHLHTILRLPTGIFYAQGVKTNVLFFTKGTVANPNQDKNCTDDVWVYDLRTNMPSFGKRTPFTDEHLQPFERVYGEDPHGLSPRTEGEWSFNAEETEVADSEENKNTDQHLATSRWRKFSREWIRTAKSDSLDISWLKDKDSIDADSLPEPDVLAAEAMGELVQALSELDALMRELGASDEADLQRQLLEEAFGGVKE
Chain of M.EcoKI (Escherichia coli) (P05719 2-464, chain 2 of 2, further chain): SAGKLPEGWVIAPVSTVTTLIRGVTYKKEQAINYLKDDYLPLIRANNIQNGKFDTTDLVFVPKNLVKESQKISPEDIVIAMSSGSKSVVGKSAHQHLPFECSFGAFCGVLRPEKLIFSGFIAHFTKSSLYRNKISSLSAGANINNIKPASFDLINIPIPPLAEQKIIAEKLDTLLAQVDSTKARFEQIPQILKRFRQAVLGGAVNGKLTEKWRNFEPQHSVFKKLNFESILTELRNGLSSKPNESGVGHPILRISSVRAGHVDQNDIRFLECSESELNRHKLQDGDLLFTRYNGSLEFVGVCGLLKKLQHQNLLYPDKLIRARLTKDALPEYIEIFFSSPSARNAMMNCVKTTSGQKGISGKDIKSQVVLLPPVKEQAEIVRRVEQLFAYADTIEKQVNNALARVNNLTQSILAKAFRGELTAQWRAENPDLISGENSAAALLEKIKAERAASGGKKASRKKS

Ocr (from UniProt P03775)
pKd: 10.30
